Changes are numbered by the printed parent chain. Values joined by “and” are separate entries in the source; they are usually repeats but may differ in a detail not shown here. Equal values may be shown once.
T1: human TNFR2 on the cell membrane (human, UniProt P20333 23-461)
T1 construct: whole, on cells; One molecule for all cell formats; also called TNFR2-CHO cells; CHO-TNFR2
T1 sequence (looked up): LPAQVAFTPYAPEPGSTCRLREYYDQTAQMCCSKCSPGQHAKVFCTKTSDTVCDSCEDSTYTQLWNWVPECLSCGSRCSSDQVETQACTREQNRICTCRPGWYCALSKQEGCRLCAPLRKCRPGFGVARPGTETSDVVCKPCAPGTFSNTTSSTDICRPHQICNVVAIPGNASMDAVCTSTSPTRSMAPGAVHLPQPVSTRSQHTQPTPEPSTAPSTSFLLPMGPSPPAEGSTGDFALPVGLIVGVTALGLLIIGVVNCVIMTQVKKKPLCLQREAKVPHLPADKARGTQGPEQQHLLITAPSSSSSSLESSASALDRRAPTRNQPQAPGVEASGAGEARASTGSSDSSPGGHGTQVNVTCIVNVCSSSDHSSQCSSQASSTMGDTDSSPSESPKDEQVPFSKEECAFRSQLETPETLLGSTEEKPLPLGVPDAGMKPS

T2: recombinant human TNFR2 antigen (Kangdai, batch number A100114U) (human, UniProt P20333 23-257)
T2 construct: also called hTNFR2; TNFR2-FC (Shanghai Saijin Biopharmaceutical Co., Ltd., Qiangke, catalog number A100114U); not shown: Fc part of the bought TNFR2-FC
T2 sequence (looked up): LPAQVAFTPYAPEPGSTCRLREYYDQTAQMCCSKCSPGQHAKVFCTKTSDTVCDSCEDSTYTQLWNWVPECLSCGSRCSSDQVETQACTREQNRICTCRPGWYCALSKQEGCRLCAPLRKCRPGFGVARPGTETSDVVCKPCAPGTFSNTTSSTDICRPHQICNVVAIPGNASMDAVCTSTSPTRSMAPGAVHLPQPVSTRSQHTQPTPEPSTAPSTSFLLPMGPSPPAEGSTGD

T3: recombinant cynomolgus monkey TNFR2 (Cyno. TNFR2) (Sino Biological, 90102-C021) (cynomolgus monkey, UniProt A0A2K5VET2 132-366)
T3 sequence: T2 sequence (looked up) with S16G, S36P, P117Q, N164H, E210A, S216G, M223V

T4: recombinant mouse TNFR2 (mTNFR2) (Sino Biological, 50128-M08H) (mouse, UniProt P25119 23-258)
T4 sequence (looked up): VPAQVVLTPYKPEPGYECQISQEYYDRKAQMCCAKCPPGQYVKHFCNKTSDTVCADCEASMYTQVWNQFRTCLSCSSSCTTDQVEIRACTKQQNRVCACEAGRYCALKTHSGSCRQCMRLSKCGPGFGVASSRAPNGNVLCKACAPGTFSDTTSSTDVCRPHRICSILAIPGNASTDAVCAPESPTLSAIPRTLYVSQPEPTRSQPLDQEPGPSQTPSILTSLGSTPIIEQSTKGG

B1: anti-human TNFR2 mouse monoclonal antibody 7F2 (antibody, V domains shown)
VH: QVTLKESGPGILQPSQTLSLTCSFSGFSLNTFGLGVGWIRQPSGKGLEWLTHIWWNDDKYYNPALKSRLTISRDTSENLVFLKIANVDTADTATYYCARIEGLRRFDYWGQGTTLTVSS
VL: DIQMTQSPSSLSASLGGKVTITCKTSQDINKFIAWYQHKPGKGPRLLIHYTSTLQPGIPSRFSGSGSGRDYSFSISDLEPEDIATYYCLQYANLWAFGGGTKLEIK
B2: anti-human TNFR2 mouse monoclonal antibody 12E12 (antibody, V domains shown)
VH: EVQLQQSGAELVKPGASVKLSCTVSGFNIKDFYIHWVKQRPEQGLEWIGRVDPEDGNTEYAPNFQDRATMTTDTSSNTAYLQLSSLTSVDTAVYYCSTWDGFSYFDYWGLGTTLTVSS
VL: QAVVTQESALTTSPGETVTLTCRSSTGPVTTNNYANWVQEKPDHLFTGLIGGTNDRAPGVPARFSGSLIGDKTALTITGTQTEDEAVYFCALWYRNHWVFGGGTKLTVL
B3: anti-human TNFR2 mouse monoclonal antibody 29A1 (antibody, V domains shown)
VH: QVQLQQSGAEVVRPGASVTLSCKASGYTFSDYEMHWVKQTPVHGLEWIGAIDPETGDTAYNQKFKDKARVTADKSSSTAYMELRSLTSEDSAVYYCTRDIHYYGSSLSYFDYWGQGTTLTVSS
VL: DIVMTQSQKFMSTSVGDRVSVTCKASQNVGTNVAWYQQKPGQSPKVMIYSASYRYSGAPDRFTGSGSGTDFTLTVNNVQSEDLAEYFCQQYKTYPYTFGGGTKLEIE
B4: anti-human TNFR2 mouse monoclonal antibody 27F6 (antibody, V domains shown)
VH: EVQLQQSGTVLARPGASVKMSCKTSGYTFTSYWMHWVKQRPGQGLEWIGTIYPGNSDTSYNQKFKGKAKLTAVTSASTAYMELNSLTNEDSAVFYCTRENLLLRSYFFDYWGQGTTLTVSS
VL: DIVMTQSPASLAVSLGQRATISCKASQSVDYDGDSYLNWYQQKPGQPPKLLIYAASNLPSGIPARFSGSGSGTDFTLNIHPVEEEDAATYYCQQSNEDPRTFGGGTKLEIK
B5: anti-human TNFR2 mouse monoclonal antibody 13F5 (antibody, V domains shown)
VH: QVQLQQSGAELVRPGTSVKMSCKASGYTFTNYWIGWTKQRPGHGLEWIGDIFPGGDFTNYNEKFKGKATLTADKSSSTAYLQFSSLTSEDSAIYYCSRRRFTTIVAPGFDYWGQGTTLTVSS
VL: QLVLTQSSSASFSLGASAKLTCTLSSQHSMYTIEWYQQQPLKPPKFVMELKKDGSHSTGDGIPDRFSGSSSGADRYLNISNIQPEDEAIYICGVGDTIKEQFVYVFGGGTEVTVL
B6: human-mouse chimeric TNFR2 monoclonal antibody 16D2-hFc (antibody, V domains shown)
VH: EVQLQQSEPELVKPGASVKIPCKASGYTFTDYNMDWVKQSHGKSLEWIGDINPNNGVTIYNQKFKGKATLTVDKSSSTAYMELRSLTSEDTAVYYCVILEYFDYWGQGTTLTVSS
VL: DIVMTQSTSSMSVSLGDTVSITCHASQGISSNIGWLQQKPGKSFKGLIYHGTKLEDGVPSRFSGSGSGADYSLTISSLESEDFADYYCVQYAQFPRTFGGGTKLEIK
notes: Mouse V regions of clone 16D2 with human constant regions

target: T1, human TNFR2 on the cell membrane; experiment: flow cytometry on TNFR2-CHO cells
Description: (§1) Purified anti-human TNFR2 mouse monoclonal antibodies were co-incubated with TNFR2 overexpressing CHO cell lines (obtained routinely as follows: PCDNA3.4-TNFR2 was transfected into CHO cells, and stable high expression TNFR2 cell lines were obtained through drug screening and monoclonal sorting), and then stained. The antibody binding intensity was analyzed by flow cytometry. The specific steps are as follows: TNFR2-CHO cells were counted, centrifuged, resuspended, then added to a 96-deep well plate, and the supernatant was discarded. The anti-TNFR2 antibodies to be tested were gradient diluted, added to the 96-deep well plate. […] The samples were detected using Beckman CytoFLEX.

EC50 [nM] | Binder
2.44 | B1
0.986 | B2
1.19 | B3
1.25 | B4

target: T2, recombinant human TNFR2 antigen …; experiment: ELISA, coated recombinant human TNFR2
Description: (§2) After TMB development, the detection was performed using microplate reader: dual wavelength 450 nm/655 nm detection, and results were calculated by OD₄₅₀-OD₆₅₅.

EC50 [µg/mL] | Binder
0.0623 | B1
0.0707 | B2
0.0255 | B3
0.0638 | B5
0.0366 | B4

target: T2, recombinant human TNFR2 antigen …; experiment: ELISA, plate coated with recombinant human TNFR2 antigen
Description: as §2

EC50 [nM] | Binder
0.418 | B1
0.474 | B2
0.171 | B3
0.428 | B5
0.245 | B4

target: T3, recombinant cynomolgus monkey TNFR2 …; experiment: ELISA, plate coated with recombinant cynomolgus monkey TNFR2
Description: as §2
(§3) Using the same method as above, the TNFR2 antigens of cynomolgus monkey and mouse (Sino Biological, 90102-C021 and 50128-M08H) were coated separately. The anti-human TNFR2 mouse monoclonal antibodies to be tested were gradient diluted, then added with the anti-mouse Fab segment secondary antibody (Jackson Immuno Research, 515-035-072), and TMB development was performed. ELISA was used to detect the binding of 8 strains of mouse monoclonal antibodies to recombinant mouse TNFR2 (mTNFR2) and cynomolgus monkey TNFR2 (Cyno. TNFR2).

EC50 | Binder
0.795 nM | B1
0.933 nM | B2
0.377 nM | B3
> 1 µg/mL and > 6.7 nM | B5
0.506 nM | B4

target: T4, recombinant mouse TNFR2 (mTNFR2) (Sino …); experiment: ELISA, coated mouse TNFR2
Description: as §2, §3

binding result | Binder
no binding | B1
no binding | B2
no binding | B3
no binding | B5
no binding | B4

target: T3, recombinant cynomolgus monkey TNFR2 …; experiment: ELISA, coated cynomolgus TNFR2
Description: as §2, §3

EC50 [µg/mL] | Binder
0.119 | B1
0.139 | B2
0.0562 | B3
0.0756 | B4

target: T1, human TNFR2 on the cell membrane; experiment: flow cytometry, TNFR2-CHO cells
Description: as §1

EC50 [µg/mL] | Binder
0.364 | B1
0.147 | B2
0.178 | B3
0.187 | B4

target: T1, human TNFR2 on the cell membrane; experiment: flow cytometry on human PBMC, CD3+ T cells
Description: Purified anti-human TNFR2 human-mouse chimeric monoclonal antibodies were co-cultured with PBMC cells (Oricells) and stained. The binding of the antibody was analyzed by flow cytometry. The specific steps are as follows: PBMC cells (Oricells) were counted, centrifuged, resuspended, then added to a 96-deep well plate, and the supernatant was discarded. Diluted anti-TNFR2 monoclonal antibodies were added.

percent of cells in the upper right quadrant (Q1-UR, CD3+ and anti-human IgG Fc+) [%] | Binder
9.66 | B6
